Laboratory results from the supplement of paper PMC10126150.
± gives the standard deviation of the averaged measurements.

Each sequence was assayed on ATP (assay: switch fluorescence ratio, 500 uM ATP over buffer (Cy3 cluster intensity, sum of 5 cycles each) (fold (ratio)); higher = stronger signal-on switching upon ATP binding; sequences stand for … in TCGTCGGCAGCGTCAGATGTGTATAAGAGACAGTTTTTTTTTTTTTTTTTTTTTTTTT…TC). Conditions: aptamer strand: ATP DNA aptamer (quencher-CACCTGGGGGAGTATTGCGGAGGAAGG + anchor), 100 nM annealed; ATP concentration: 500 uM.
How it was run: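 Five buffer/ATP imaging cycles were run on Cy3-labelled switching-strand clusters on a modified Illumina MiSeq flow-cell, with NaOH stripping and re-annealing between cycles. In each cycle, clusters annealed to 100 nM quencher-labelled ATP aptamer were imaged in selection buffer, then after 15 min with 500 uM ATP at 22 °C. Per cluster, the fluorescence ratio is summed target-cycle over summed buffer-cycle Cy3 intensity, averaged per switch-domain sequence. Only clusters within 100-1000 RFU were kept.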
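Further: ATP exposure 15 min at 22 °C before imaging.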

Row | Sequence | switch fluorescence ratio
1 | TGCTCAATGA | 0.9737 ± 0.0075
2 | TGCTGAGTTT | 1.01 ± 0.05
3 | TGCTGCCTAC | 2.38 ± 1.6
4 | TGCTGCGGTG | 0.993 ± 0.0084
5 | TGCTGGAAGT | 0.977 ± 0.032
6 | TGCTGGACTT | 0.987 ± 0.015
7 | TGCTGGATT | 0.983 ± 0.025
8 | TGCTGGATTA | 1.01 ± 0.031
9 | TGCTGGCCGG | 0.98 ± 0.022
10 | TGCTGGCTGG | 0.973 ± 0.0016
11 | TGCTGGGGAA | 1.01 ± 0.028
12 | TGCTGGGTAT | 0.9954 ± 0.0031
13 | TGCTGGGTCC | 1.02 ± 0.02
14 | TGCTGGGTTT | 0.998 ± 0.011
15 | TGCTGTTGGC | 0.928 ± 0.025
16 | TGCTTCATGT | 0.985 ± 0.027
17 | TGCTTGTATT | 1.01 ± 0.027
18 | TGCTTGTTAG | 0.989 ± 0.07
19 | TGCTTTAAAG | 1 ± 0.037
20 | TGCTTTAGGG | 0.965 ± 0.029
21 | TGGAAAAGGG | 1.032 ± 0.0082
22 | TGGAACCGGA | 1.02 ± 0.011
23 | TGGAACTTAT | 0.997 ± 0.056
24 | TGGAAGAAAT | 1.02 ± 0.011
25 | TGGAAGAGGG | 1 ± 0.018

Row | Sequence | switch fluorescence ratio
26 | TGGAAGGGG | 1.02 ± 0.015
27 | TGGAAGGTT | 0.987 ± 0.019
28 | TGGAATTAAC | 1.02 ± 0.042
29 | TGGAATTACT | 1.26 ± 0.36
30 | TGGAATTTGG | 1 ± 0.038
31 | TGGACAAATT | 1.02 ± 0.022
32 | TGGACATGTG | 1.05 ± 0.1
33 | TGGACCGGTC | 0.996 ± 0.01
34 | TGGACGGGGC | 1.034 ± 0.0099
35 | TGGAGAAAGT | 1.03 ± 0.067
36 | TGGAGAGGGG | 0.996 ± 0.05
37 | TGGAGAGTGT | 0.963 ± 0.036
38 | TGGAGGGGCT | 0.987 ± 0.046
39 | TGGAGGTCCG | 1.06 ± 0.023
40 | TGGAGTAACT | 1.0876 ± 0.00087
41 | TGGAGTCCGG | 0.987 ± 0.036
42 | TGGAGTTTAA | 1 ± 0.026
43 | TGGATAGAGT | 0.985 ± 0.02
44 | TGGATAGGCA | 0.986 ± 0.012
45 | TGGATAGGTA | 0.995 ± 0.023
46 | TGGATATGAC | 1 ± 0.015
47 | TGGATCAAGT | 1.01 ± 0.06
48 | TGGATGATAT | 0.9913 ± 0.008
49 | TGGATGTCTG | 0.978 ± 0.044
50 | TGGATTAAGT | 1.02 ± 0.042

Row | Sequence | switch fluorescence ratio
51 | TGGATTATGT | 1.005 ± 0.0045
52 | TGGATTGGGT | 1 ± 0.046
53 | TGGCACAGTG | 0.996 ± 0.019
54 | TGGCACGCGG | 0.986 ± 0.019
55 | TGGCACGTAT | 1.09 ± 0.03
56 | TGGCAGAAGG | 1.06 ± 0.076
57 | TGGCAGTAAA | 1.02 ± 0.039
58 | TGGCATATTT | 1.05 ± 0.051
59 | TGGCATTGGT | 0.983 ± 0.014
60 | TGGCCGACTT | 1.02 ± 0.02
61 | TGGCCGCTTT | 1.03 ± 0.03
62 | TGGCCGGAAT | 1.04 ± 0.03
63 | TGGCCTAACT | 1.02 ± 0.042
64 | TGGCCTTCGT | 1.13 ± 0.049
65 | TGGCGAGAGG | 1 ± 0.022
66 | TGGCGATTGG | 0.985 ± 0.023
67 | TGGCGGATTT | 0.998 ± 0.031
68 | TGGCGGGGAC | 1.1 ± 0.17
69 | TGGCGGGGGC | 1.02 ± 0.011
70 | TGGCGGTAGT | 1.06 ± 0.056
71 | TGGCGTTGGG | 1.02 ± 0.046
72 | TGGCTCCCGC | 1.089 ± 0.0041
73 | TGGCTCGAGC | 1.01 ± 0.017
74 | TGGCTCGGCT | 1.03 ± 0.051
75 | TGGCTGAGAA | 0.9723 ± 0.0028

Row | Sequence | switch fluorescence ratio
76 | TGGCTGATTT | 1.003 ± 0.0053
77 | TGGCTGCTGG | 0.949 ± 0.013
78 | TGGCTGGAAC | 0.981 ± 0.021
79 | TGGCTGGGCT | 1.03 ± 0.05
80 | TGGCTTGGGG | 1.03 ± 0.051
81 | TGGGAAAGCC | 0.981 ± 0.012
82 | TGGGAAAGCG | 1 ± 0.024
83 | TGGGAACCAA | 1.02 ± 0.022
84 | TGGGAAGGTT | 1.02 ± 0.041
85 | TGGGAATACG | 1.11 ± 0.048
86 | TGGGAATGCC | 0.994 ± 0.025
87 | TGGGAATGGT | 1.01 ± 0.048
88 | TGGGACGCCT | 1.06 ± 0.14
89 | TGGGACGGGT | 0.968 ± 0.052
90 | TGGGACGGTC | 1.1 ± 0.051
91 | TGGGACTGGG | 1.01 ± 0.06
92 | TGGGAGAAGT | 0.983 ± 0.011
93 | TGGGAGCAGG | 1.05 ± 0.079
94 | TGGGAGGG | 1.04 ± 0.013
95 | TGGGAGGGGG | 0.991 ± 0.036
96 | TGGGAGTTCA | 0.971 ± 0.01
97 | TGGGATCCGC | 1.03 ± 0.056
98 | TGGGATGGAA | 1.004 ± 0.0031
99 | TGGGATGGAG | 0.976 ± 0.037
100 | TGGGATGTTG | 1 ± 0.052

Row | Sequence | switch fluorescence ratio
101 | TGGGATTAAG | 0.987 ± 0.034
102 | TGGGCAAAAA | 1.01 ± 0.011
103 | TGGGCAAAGT | 0.9863 ± 0.0074
104 | TGGGCAAGGA | 1.02 ± 0.028
105 | TGGGCACGGT | 0.969 ± 0.049
106 | TGGGCAGATG | 0.989 ± 0.016
107 | TGGGCCGAGG | 1.12 ± 0.063
108 | TGGGCGAACG | 0.9626 ± 0.0022
109 | TGGGCGAGAA | 0.9685 ± 0.0052
110 | TGGGCGGTGC | 1.93 ± 1.2
111 | TGGGCTAAAT | 0.987 ± 0.027
112 | TGGGGAAAAG | 1.09 ± 0.31
113 | TGGGGAAAGA | 1.01 ± 0.034
114 | TGGGGAAATG | 0.997 ± 0.029
115 | TGGGGAAATT | 1.01 ± 0.022
116 | TGGGGAAGGG | 0.989 ± 0.039
117 | TGGGGAAGTT | 1 ± 0.034
118 | TGGGGAATTC | 1.53 ± 0.86
119 | TGGGGACCCT | 0.991 ± 0.014
120 | TGGGGACCGG | 1.01 ± 0.027
121 | TGGGGACCTT | 1 ± 0.0032
122 | TGGGGACGGT | 1.01 ± 0.012
123 | TGGGGAGATA | 1.01 ± 0.018
124 | TGGGGAGGGT | 1.01 ± 0.035
125 | TGGGGATAAC | 0.969 ± 0.034

Row | Sequence | switch fluorescence ratio
126 | TGGGGCAAAC | 1.87 ± 0.81
127 | TGGGGCAGGT | 0.997 ± 0.051
128 | TGGGGCATTT | 1 ± 0.036
129 | TGGGGCCCCA | 1.01 ± 0.046
130 | TGGGGCCCGA | 1.02 ± 0.037
131 | TGGGGCCTAA | 1.02 ± 0.013
132 | TGGGGCCTTA | 0.952 ± 0.018
133 | TGGGGCGACT | 0.991 ± 0.021
134 | TGGGGCGGAG | 0.979 ± 0.031
135 | TGGGGCGGCG | 0.976 ± 0.03
136 | TGGGGCGTGC | 1.06 ± 0.065
137 | TGGGGCGTTG | 1.01 ± 0.019
138 | TGGGGGAACT | 0.996 ± 0.019
139 | TGGGGGAAGA | 1.03 ± 0.069
140 | TGGGGGAAGT | 1.01 ± 0.029
141 | TGGGGGAATA | 0.999 ± 0.03
142 | TGGGGGACAG | 1 ± 0.029
143 | TGGGGGACGG | 1 ± 0.035
144 | TGGGGGAGA | 1.04 ± 0.017
145 | TGGGGGAGTT | 0.994 ± 0.026
146 | TGGGGGATTA | 0.999 ± 0.021
147 | TGGGGGCAAA | 0.987 ± 0.03
148 | TGGGGGCAAG | 0.987 ± 0.018
149 | TGGGGGCCGG | 1.02 ± 0.039
150 | TGGGGGCGAC | 1 ± 0.057

Row | Sequence | switch fluorescence ratio
151 | TGGGGGCGTG | 0.9502 ± 0.00056
152 | TGGGGGGAC | 1.01 ± 0.061
153 | TGGGGGGACC | 1.03 ± 0.05
154 | TGGGGGGCAA | 1.56 ± 1.1
155 | TGGGGGGTCT | 1.02 ± 0.057
156 | TGGGGGGTTG | 1.02 ± 0.049
157 | TGGGGGTCGA | 1.01 ± 0.053
158 | TGGGGGTTAA | 0.981 ± 0.025
159 | TGGGGGTTCC | 1.01 ± 0.025
160 | TGGGGGTTGG | 1 ± 0.024
161 | TGGGGGTTTT | 1 ± 0.032
162 | TGGGGTAAAC | 0.997 ± 0.024
163 | TGGGGTAAGA | 1.02 ± 0.015
164 | TGGGGTAAGT | 0.993 ± 0.032
165 | TGGGGTATGG | 0.978 ± 0.033
166 | TGGGGTATTG | 0.974 ± 0.012
167 | TGGGGTCGGC | 0.987 ± 0.021
168 | TGGGGTCTGA | 0.974 ± 0.017
169 | TGGGGTGAAC | 1 ± 0.025
170 | TGGGGTGCCA | 0.9795 ± 0.0071
171 | TGGGGTGCTC | 0.998 ± 0.056
172 | TGGGGTGGGT | 1 ± 0.039
173 | TGGGGTTA | 0.98448 ± 0.00037
174 | TGGGGTTGAC | 0.9697 ± 0.0034
175 | TGGGGTTGGG | 1 ± 0.044

Row | Sequence | switch fluorescence ratio
176 | TGGGGTTGTG | 0.987 ± 0.031
177 | TGGGGTTTTT | 0.984 ± 0.026
178 | TGGGTAAAGC | 1.03 ± 0.017
179 | TGGGTAACGG | 0.999 ± 0.0039
180 | TGGGTAATAT | 1.032 ± 0.0077
181 | TGGGTACACG | 1 ± 0.0019
182 | TGGGTAGGCT | 0.996 ± 0.035
183 | TGGGTATAAT | 1.014 ± 0.0096
184 | TGGGTATAT | 1.01 ± 0.011
185 | TGGGTATGTG | 0.972 ± 0.038
186 | TGGGTATTAG | 0.992 ± 0.054
187 | TGGGTATTGT | 1.02 ± 0.047
188 | TGGGTCAAAG | 0.9881 ± 0.0088
189 | TGGGTCCATA | 0.95611 ± 0.00081
190 | TGGGTCGGCT | 1.06 ± 0.1
191 | TGGGTCGGGA | 0.982 ± 0.031
192 | TGGGTCTGAT | 0.9865 ± 0.0031
193 | TGGGTGAATT | 0.98 ± 0.017
194 | TGGGTGCTGA | 0.954 ± 0.052
195 | TGGGTGGACA | 1.02 ± 0.08
196 | TGGGTGGGAC | 1.04 ± 0.036
197 | TGGGTGGGCT | 0.975 ± 0.011
198 | TGGGTGGGGA | 1 ± 0.036
199 | TGGGTGGTGC | 0.965 ± 0.011
200 | TGGGTGGTTG | 1.02 ± 0.035
